Experimental data published in IntAct's records for PubMed 9687513.

B1: Early protein (Human adenovirus C serotype 5 (HAdV-5)), P03255-2 (parent)
chain: MRHIICHGGVITEEMAASLLDQLIEEVLADNLPPPSHFEPPTLHELYDLDVTAPEDPNEEAVSQIFPDSVMLAVQEGIDLLTFPPAPGSPEPPHLSRQPEQPEQRALGPVSMPNLVPEVIDLTCHEAGFPPSDDEDEEGPVSEPEPEPEPEPEPARPTRRPKMAPAILRRPTSPVSRECNSSTDSCDSGPSNTPPEIHPVVPLCPIKPVAVRVGGRRQAVECIEDLLNEPGQPLDLSCKRPRP

Variants of: B1
Settings: with kat2b_human KAT2B

Row | Variant | effect of a mutation on the interaction
1 | E55A;D56A;P57A;N58A;E59A;E60A | decreasing interaction
